Test: Degradation of 20K OGF-PEG ester conjugate and release of OGF in human plasma at 37 °C
Assay type: in vitro ADME
Conditions: incubated in human plasma at 37 °C, 0.5 to 24 hours; reversed-phase HPLC or size exclusion chromatography
Protocol: Experiments for degradation of the 20K Tyr-gly-gly-phe-met-C(O)—O-mPEG conjugate (20K OGF-C(O)—O-mPEG or 20K OGF—PEG ester) and the release of OGF were conducted in human plasma at 37 ° C. The OGF—PEG conjugate containing hydrolysable ester linkages was incubated in human plasma at 37° C. for various periods of time, ranging from 0.5 to 24 hours. An aliquot plasma sample was withdrawn and treated with acetonitrile or acetonitrile/methanol organic solvent, vortexed, centrifuged, and concentrated. The solution residue was then analyzed by reversed-phase HPLC chromatography or size exclusion chromatography to check the amount of OGF-PEG and the released amount of OGF at various time points. The plasma T1/2 for 20K OGF-C(O)—O-mPEG was about 5 hours.

20K Tyr-Gly-Gly-Phe-Met-C(O)O-mPEG [20K OGF-C(O)—O-mPEG]
plasma T1/2: about 5 hours
